Several values for one entry are separate records, joined by “and”; a condition that tells them apart may be missing. Equal values may be shown once. Read-outs that look alike come from different tables or passages of the source.

The target in assay [1] is human neurotensin receptor type 2 (hNTS2R) in homogenates of HEK293T cells (human) (UniProt O95665). Briefly: radioligand binding; saturation binding of [^3H]UR-MK300 at homogenates of HEK293T-hNTS2R cells.
Assay [2] addresses human neurotensin receptor type 1 (hNTS1R), endogenous in HT-29 colon carcinoma cells (human (endogenous in HT-29)) (UniProt P30989). In words: radioligand binding; saturation binding of [^3H]UR-MK300 at intact HT-29 cells, 23 ± 1 °C.
Assay [3] concerns the target neurotensin NT(8-13) 8-13 (Homo sapiens) (UniProt P30990). In words: radioligand competition binding. Conditions: cited from earlier work.
Assay [4] shares this target. Conditions: cited from earlier work.
Assay [5] concerns the target NTS1R (Homo sapiens) (UniProt P30989). In words: radioligand competition binding. Conditions: cited from earlier work.
For assay [6] the target is unchanged. Conditions: cited from earlier work.

NTS1R (Homo sapiens), sequence (P30989 whole entry): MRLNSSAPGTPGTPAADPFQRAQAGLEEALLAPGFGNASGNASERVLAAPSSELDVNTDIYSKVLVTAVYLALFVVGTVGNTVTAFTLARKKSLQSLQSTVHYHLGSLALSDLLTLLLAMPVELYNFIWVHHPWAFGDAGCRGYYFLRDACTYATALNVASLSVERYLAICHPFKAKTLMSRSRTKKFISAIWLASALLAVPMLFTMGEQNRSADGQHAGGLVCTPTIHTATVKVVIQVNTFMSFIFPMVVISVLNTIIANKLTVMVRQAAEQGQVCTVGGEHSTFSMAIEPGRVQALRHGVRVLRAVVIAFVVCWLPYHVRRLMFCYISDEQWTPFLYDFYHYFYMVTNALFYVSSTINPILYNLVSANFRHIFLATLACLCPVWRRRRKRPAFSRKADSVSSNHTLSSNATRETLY
NTS1R, sequence (P30989 whole entry): as above
neurotensin NT(8-13) 8-13 (Homo sapiens), sequence (P30990 whole entry, looked up, tested part not stated): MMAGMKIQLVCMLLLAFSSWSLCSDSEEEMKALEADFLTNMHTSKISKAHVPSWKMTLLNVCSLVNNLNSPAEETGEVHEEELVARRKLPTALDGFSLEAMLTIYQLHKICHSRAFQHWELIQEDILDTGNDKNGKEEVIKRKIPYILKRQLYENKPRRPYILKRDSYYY
NT(8–13) 8-13, sequence (P30990 whole entry, looked up, tested part not stated): as above
human neurotensin receptor type 1 (hNTS1R), endogenous in HT-29 colon carcinoma cells (human (endogenous in HT-29)), sequence (P30989 whole entry): as the sequence (P30989 whole entry) above
human neurotensin receptor type 2 (hNTS2R) in homogenates of HEK293T cells (human), sequence (O95665 whole entry): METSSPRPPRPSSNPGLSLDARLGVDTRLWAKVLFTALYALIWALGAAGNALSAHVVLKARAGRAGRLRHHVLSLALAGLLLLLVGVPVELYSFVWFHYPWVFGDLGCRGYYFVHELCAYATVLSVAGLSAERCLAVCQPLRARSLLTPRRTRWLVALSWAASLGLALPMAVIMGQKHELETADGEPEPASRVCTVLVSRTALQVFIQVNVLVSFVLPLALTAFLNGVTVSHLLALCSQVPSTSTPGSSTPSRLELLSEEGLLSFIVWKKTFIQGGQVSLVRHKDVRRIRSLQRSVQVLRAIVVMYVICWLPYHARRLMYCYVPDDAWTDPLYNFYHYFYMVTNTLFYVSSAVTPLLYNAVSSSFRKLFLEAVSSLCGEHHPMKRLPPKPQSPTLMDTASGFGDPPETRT

In the case of [^3H]UR-MK300 (peptide), the Kd in assay [1] stood at 750 pM; in assay [2], 410 pM.
As for NTS1R (from UniProt P30989), the Ki in assay [3] was 140 pM; in assay [4], 1000 pM and 240 pM and 290 pM.
NT(8–13) 8-13 (from UniProt P30990): the Ki was 140 pM in assay [5]; 1000 pM and 240 pM in assay [6].

Broadly, the Kd is the constant that tells how readily two partners part at equilibrium. Read a low Kd as higher affinity. For orientation: Ki means the equilibrium dissociation constant of an inhibitor or competing ligand from its target.

Source of the values: paper PMC11440508, “Dually Labeled Neurotensin NTS1R Ligands for Probing Radiochemical and Fluorescence-Based Binding Assays” (Journal of Medicinal Chemistry, 2024).
